Two molecules from paper PMC9634978 (Molecular Biology of the Cell, 2022) can be followed below.

The target of assay [1] is T1, his6-Sec18 (S. cerevisiae, UniProt P18759 1-758).
T1 sequence (looked up): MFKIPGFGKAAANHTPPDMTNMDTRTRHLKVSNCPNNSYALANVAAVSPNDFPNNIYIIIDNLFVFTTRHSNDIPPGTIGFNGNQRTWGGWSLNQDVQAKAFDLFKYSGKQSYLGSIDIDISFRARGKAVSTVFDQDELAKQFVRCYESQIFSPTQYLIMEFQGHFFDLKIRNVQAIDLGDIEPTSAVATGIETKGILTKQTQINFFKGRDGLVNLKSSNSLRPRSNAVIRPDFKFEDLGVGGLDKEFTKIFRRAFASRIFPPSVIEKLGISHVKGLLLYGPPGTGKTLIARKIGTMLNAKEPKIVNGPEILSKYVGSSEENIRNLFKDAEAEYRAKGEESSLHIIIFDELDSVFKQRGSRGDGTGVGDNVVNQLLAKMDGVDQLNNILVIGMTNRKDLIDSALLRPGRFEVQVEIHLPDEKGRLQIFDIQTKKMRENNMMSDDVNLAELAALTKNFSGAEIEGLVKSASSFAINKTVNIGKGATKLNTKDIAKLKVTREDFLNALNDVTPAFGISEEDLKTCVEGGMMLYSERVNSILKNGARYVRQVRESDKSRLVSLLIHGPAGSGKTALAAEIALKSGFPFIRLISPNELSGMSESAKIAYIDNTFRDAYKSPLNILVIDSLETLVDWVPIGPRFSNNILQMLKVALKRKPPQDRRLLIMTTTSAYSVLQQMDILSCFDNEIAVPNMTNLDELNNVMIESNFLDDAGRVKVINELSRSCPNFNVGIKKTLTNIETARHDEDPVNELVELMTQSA
Briefly: liposome co-floatation.

The target in assay [2] is T1, his6-Sec18. Briefly: liposome co-floatation. The source holds these as a separate data set.

B1: Sec17-K159EK163E (natural protein, S. cerevisiae, UniProt P32602 1-292, looked up)
chain: MSDPVELLKRAEKKGVPSSGFMKLFSGSDSYKFEEAADLCVQAATIYRLRKELNLAGDSFLKAADYQKKAGNEDEAGNTYVEAYKCFKSGGNSVNAVDSLENAIQIFTHRGQFRRGANFKFELGEILENDLHDYAKAIDCYELAGEWYAQDQSVALSNECFIECADLKALDGQYIEASDIYSKLIKSSMGNRLSQWSLKDYFLKKGLCQLAATDAVAAARTLQEGQSEDPNFADSRESNFLKSLIDAVNEGDSEQLSEHCKEFDNFMRLDKWKITILNKIKESIQQQEDDLL
For the molecule B1, the binding result in assay [1] was “binds”.

B2: his6-Sec17 (natural protein, S. cerevisiae, UniProt P32602 1-292, looked up)
chain: MSDPVELLKRAEKKGVPSSGFMKLFSGSDSYKFEEAADLCVQAATIYRLRKELNLAGDSFLKAADYQKKAGNEDEAGNTYVEAYKCFKSGGNSVNAVDSLENAIQIFTHRGQFRRGANFKFELGEILENDLHDYAKAIDCYELAGEWYAQDQSVALSNKCFIKCADLKALDGQYIEASDIYSKLIKSSMGNRLSQWSLKDYFLKKGLCQLAATDAVAAARTLQEGQSEDPNFADSRESNFLKSLIDAVNEGDSEQLSEHCKEFDNFMRLDKWKITILNKIKESIQQQEDDLL
Turning to B2, in assay [2], the “stoichiometry N” value is ~3 mol Sec17 per mol Sec18 hexamer.
